The numbers were not newly measured in article PMC8878198, which cites them from elsewhere.

The data set deals with CXCL8 (Homo sapiens) (UniProt P10145).
Sequence of CXCL8 (Homo sapiens) (P10145 28-99): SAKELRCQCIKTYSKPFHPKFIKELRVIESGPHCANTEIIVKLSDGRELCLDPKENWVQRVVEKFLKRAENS

Sequence of CXCR2 (P25025 whole entry): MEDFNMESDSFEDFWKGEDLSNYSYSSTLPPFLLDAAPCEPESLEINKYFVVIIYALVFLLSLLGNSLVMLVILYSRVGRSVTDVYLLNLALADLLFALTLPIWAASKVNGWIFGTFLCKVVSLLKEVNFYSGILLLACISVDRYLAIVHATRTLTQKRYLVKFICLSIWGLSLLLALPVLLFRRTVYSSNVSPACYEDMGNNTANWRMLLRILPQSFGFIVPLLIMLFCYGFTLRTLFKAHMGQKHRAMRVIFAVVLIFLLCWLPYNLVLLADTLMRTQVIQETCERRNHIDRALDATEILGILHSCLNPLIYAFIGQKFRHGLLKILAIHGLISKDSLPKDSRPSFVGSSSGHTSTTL

By Kd is commonly meant the equilibrium constant for the complex coming apart. For the substance CXCR2 (from UniProt P25025), the Kd was 0.7 nM.
